Results: the supplement of paper PMC6379048

Experiments:
Test in all cases: EC50 of free RNA motif oligo competing protein binding to immobilised probe
NONO = molecular target: T1, NONO (UniProt Q15233)
T1 sequence: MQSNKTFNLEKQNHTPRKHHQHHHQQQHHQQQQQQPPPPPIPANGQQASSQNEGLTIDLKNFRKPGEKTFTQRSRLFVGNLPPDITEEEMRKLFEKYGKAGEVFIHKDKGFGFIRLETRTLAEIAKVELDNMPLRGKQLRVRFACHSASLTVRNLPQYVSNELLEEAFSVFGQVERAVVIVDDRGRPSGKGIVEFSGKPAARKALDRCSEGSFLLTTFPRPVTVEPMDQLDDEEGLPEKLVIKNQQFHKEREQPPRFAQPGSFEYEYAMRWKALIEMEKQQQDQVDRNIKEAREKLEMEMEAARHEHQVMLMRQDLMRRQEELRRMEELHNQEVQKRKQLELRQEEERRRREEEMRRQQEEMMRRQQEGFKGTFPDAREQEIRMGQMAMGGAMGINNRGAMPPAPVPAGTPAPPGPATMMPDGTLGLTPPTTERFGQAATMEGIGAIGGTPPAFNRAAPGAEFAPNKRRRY
In short: (§1)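 Free RNA oligos (0 nM to 30 μM) competed for 1 h at 4°C in HEK293-FT lysate (2.5 mg protein/well) before a 30 min, 4°C pulldown with the same oligos on NHS-Sepharose beads. Bound proteins were quantified by label-free LC-MS/MS and normalised to the control. Kd was found by multiplying EC50, from a four-parameter log-logistic fit, by a protein-dependent depletion factor.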

U2AF1 = molecular target: T2, U2AF1 (UniProt Q01081)
T2 sequence: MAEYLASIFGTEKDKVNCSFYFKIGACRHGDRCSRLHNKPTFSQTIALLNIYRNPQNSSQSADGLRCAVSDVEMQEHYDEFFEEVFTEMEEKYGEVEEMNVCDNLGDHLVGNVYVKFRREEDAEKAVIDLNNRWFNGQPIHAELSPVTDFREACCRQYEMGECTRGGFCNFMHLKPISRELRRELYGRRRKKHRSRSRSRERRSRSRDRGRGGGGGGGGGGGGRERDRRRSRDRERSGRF
In short: as §1

PUF60 = molecular target: T3, PUF60 (UniProt Q9UHX1)
T3 sequence: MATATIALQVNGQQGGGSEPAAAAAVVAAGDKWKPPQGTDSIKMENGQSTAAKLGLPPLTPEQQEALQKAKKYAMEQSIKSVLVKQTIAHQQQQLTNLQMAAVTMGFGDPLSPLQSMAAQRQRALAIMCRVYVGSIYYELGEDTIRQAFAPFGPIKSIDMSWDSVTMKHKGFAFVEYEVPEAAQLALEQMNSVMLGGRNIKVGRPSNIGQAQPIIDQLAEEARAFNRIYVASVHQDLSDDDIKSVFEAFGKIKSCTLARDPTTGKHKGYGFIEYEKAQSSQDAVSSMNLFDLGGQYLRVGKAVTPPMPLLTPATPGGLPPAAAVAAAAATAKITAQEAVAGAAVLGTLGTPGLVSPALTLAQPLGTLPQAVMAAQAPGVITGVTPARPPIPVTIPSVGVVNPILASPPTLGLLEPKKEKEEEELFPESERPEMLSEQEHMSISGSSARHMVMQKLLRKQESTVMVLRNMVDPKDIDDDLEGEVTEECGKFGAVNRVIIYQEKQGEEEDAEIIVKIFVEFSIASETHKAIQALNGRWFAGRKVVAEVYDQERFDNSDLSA
In short: as §1

SYNCRIP = molecular target: T4, SYNCRIP (UniProt O60506)
T4 sequence: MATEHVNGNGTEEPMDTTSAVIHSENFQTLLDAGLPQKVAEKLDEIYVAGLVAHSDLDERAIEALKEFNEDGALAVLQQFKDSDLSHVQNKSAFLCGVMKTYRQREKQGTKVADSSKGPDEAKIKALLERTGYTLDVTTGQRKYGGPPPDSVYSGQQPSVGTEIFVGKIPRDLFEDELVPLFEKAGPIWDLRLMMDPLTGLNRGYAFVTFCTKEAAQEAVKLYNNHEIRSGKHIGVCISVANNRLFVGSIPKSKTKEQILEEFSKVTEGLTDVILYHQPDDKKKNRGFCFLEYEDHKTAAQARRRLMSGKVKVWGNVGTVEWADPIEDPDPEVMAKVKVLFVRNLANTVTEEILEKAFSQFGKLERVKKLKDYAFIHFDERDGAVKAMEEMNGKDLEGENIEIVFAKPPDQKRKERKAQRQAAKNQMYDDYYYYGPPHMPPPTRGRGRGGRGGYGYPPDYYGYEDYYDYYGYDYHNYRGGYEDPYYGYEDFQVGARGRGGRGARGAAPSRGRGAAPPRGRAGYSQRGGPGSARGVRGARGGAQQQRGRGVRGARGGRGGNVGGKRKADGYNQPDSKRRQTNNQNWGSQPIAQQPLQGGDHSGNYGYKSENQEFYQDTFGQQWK
In short: as §1

SF3B5 = molecular target: T5, SF3B5 (UniProt Q9BWJ5)
T5 sequence: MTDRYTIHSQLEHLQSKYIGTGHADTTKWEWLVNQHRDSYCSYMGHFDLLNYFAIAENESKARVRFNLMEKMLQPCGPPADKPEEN
In short: as §1

IGF2BP3 = IGF2BP3 (UniProt O00425)
Sequence of IGF2BP3 (O00425 whole entry): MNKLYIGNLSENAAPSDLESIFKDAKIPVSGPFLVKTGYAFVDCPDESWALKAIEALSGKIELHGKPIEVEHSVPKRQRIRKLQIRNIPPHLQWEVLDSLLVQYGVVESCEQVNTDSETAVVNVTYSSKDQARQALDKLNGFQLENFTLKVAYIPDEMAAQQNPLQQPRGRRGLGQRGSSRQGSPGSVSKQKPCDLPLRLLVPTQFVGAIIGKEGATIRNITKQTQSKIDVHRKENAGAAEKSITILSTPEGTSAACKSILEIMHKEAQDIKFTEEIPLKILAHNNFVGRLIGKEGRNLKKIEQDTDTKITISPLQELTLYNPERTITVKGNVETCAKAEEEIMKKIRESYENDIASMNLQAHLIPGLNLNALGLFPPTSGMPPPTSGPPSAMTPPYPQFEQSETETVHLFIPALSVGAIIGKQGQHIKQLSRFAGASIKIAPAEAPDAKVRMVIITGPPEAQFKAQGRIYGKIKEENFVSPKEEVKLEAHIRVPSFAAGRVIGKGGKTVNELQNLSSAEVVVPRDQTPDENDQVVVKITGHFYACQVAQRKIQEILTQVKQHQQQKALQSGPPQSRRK
In short: as §1

MRPL43 = MRPL43 (UniProt Q8N983)
In short: as §1

SRSF6 = SRSF6 (UniProt Q13247)
Sequence of SRSF6 (Q13247 whole entry, looked up): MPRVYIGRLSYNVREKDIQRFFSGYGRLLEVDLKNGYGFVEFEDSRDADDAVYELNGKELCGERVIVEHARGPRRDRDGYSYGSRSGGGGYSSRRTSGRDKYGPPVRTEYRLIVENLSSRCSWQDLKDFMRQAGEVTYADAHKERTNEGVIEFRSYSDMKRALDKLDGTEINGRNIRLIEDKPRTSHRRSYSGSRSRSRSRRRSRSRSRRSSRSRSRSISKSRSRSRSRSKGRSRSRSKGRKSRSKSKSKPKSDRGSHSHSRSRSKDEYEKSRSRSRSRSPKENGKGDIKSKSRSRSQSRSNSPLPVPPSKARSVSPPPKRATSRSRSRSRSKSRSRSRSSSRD
In short: as §1

MRPL14 = MRPL14 (UniProt Q6P1L8)
In short: as §1

TTC37 = TTC37 (UniProt Q6PGP7)
Sequence of TTC37 (Q6PGP7 whole entry): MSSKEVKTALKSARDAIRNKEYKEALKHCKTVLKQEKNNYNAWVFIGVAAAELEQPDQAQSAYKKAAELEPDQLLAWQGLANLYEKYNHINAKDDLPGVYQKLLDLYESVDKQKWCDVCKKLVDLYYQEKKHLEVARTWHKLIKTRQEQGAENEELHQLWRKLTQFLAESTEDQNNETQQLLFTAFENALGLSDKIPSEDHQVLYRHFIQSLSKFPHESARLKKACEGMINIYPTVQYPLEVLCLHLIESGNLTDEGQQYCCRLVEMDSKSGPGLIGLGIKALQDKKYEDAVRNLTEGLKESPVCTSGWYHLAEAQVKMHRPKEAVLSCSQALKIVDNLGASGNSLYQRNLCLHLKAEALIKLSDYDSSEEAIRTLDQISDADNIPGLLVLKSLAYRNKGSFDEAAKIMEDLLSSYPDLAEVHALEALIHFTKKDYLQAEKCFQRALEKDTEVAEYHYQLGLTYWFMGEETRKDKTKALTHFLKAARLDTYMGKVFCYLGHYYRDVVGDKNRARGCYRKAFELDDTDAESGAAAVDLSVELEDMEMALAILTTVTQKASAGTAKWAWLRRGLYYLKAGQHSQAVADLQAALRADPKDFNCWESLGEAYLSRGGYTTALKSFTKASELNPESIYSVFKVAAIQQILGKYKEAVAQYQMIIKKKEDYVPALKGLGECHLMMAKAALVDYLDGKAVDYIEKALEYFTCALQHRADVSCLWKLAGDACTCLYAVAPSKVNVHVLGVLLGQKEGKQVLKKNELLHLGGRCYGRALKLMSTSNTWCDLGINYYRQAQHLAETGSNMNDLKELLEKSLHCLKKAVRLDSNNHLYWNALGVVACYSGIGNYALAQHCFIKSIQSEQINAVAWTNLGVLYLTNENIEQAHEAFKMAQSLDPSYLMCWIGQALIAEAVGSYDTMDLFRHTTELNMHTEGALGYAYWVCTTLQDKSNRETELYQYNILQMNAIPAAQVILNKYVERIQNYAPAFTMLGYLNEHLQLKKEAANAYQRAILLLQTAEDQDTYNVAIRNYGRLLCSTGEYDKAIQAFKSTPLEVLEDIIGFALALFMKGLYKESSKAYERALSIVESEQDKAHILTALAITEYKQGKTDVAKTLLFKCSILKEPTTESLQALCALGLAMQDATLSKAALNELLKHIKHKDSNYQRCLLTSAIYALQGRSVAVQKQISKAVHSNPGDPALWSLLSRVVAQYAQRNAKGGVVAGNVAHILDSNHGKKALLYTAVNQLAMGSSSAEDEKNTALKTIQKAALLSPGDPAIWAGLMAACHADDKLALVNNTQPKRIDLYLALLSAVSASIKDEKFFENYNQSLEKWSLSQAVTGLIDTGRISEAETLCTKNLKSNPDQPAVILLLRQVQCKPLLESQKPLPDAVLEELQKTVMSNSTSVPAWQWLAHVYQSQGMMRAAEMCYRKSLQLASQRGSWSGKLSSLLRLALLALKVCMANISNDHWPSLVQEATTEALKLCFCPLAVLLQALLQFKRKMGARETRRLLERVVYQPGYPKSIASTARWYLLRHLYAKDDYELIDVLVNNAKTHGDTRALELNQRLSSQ
In short: as §1

MRPS34 = MRPS34 (UniProt P82930)
In short: as §1

AAUAAA
EC50 (NONO): 0.302 nM
EC50 (U2AF1): 1460 nM
EC50 (PUF60): 899 nM
EC50 (SYNCRIP): 1850 nM
EC50 (SF3B5): 1210 nM

CUGUCCU
EC50 (IGF2BP3): 3.77 µM
EC50 (MRPL43): 104 nM
EC50 (SRSF6): 1140 nM
EC50 (MRPL14): 104 nM

UAUUUAU
EC50 (TTC37): 947 nM
EC50 (MRPS34): 59.7 nM
